# From PMC4939597, “Mechanism for insulin-like peptide 5 distinguishing the homologous relaxin family peptide receptor 3 and 4” (Scientific Reports, 2016)
# No end group written: not given here.
# Key:
# [1] = target: T1, human RXFP3 (Homo sapiens, UniProt Q9NSD7); experiment: Receptor binding assay, competition with NanoLuc-conjugated R3/I5 tracer
# T1 construct: expressed in transfected cells; host or cells: HEK293T
# T1 sequence (Q9NSD7 1-469): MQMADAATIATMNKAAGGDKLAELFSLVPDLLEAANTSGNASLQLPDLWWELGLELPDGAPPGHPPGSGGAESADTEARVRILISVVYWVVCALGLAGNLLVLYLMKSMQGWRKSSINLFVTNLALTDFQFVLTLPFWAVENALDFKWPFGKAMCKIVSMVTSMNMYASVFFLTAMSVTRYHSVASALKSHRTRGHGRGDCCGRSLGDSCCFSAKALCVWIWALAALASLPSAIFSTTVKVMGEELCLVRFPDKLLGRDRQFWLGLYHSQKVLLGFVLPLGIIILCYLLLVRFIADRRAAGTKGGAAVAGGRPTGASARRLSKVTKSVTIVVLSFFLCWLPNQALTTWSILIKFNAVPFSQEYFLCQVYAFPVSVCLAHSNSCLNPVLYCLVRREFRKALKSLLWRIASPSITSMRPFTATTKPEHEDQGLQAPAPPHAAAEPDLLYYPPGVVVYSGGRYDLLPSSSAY
# Experimental: (§1) Figure 3 Receptor binding activities of the mature INSL5 and R3/I5 mutants towards RXFP3 and RXFP4. A NanoLuc-conjugated R3/I5 peptide was used as tracer and HEK293T cells transiently overexpressing human RXFP3 or human RXFP4 were used as receptor source. The tracer concentration used in these assays was 0.5 nM. The nonspecific binding was obtained by competition with 1.0 μM of relaxin-3. The measured data were expressed as mean ± SE (n = 3) and fitted to sigmoidal curves using the software SigmaPlot 10.0.
# (§2) The receptor binding assays of the mature INSL5 and R3/I5 mutants were carried out using a NanoLuc-conjugated R3/I5 peptide as tracer and the human embryonic kidney (HEK) 293T cells transiently overexpressing human RXFP3 or human RXFP4 as receptor source. Nonspecific binding was obtained by competition with 1.0 μM of human relaxin-3. Briefly, HEK293T cells were transiently transfected with the expression construct of human RXFP3 or human RXFP4. Next day, the transfected cells were trypsinised, seeded into a 96-well plate, and continuously cultured for 24–36 h to confluence. To start binding assay, the medium was removed and the binding solution (serum-free DMEM medium plus 1% bovine serum albumin) containing 0.5 nM of the NanoLuc-conjugated R3/I5 tracer and varied concentrations of competitor was added (100 μl/well). After incubation at 21 °C for 2 h, the binding solution was removed and the cells were washed twice by ice-cold phosphate-buffered saline (200 μl/well for each wash). Thereafter, the cells were lysed by lysis solution (100 μl/well, from Promega, Madison, WI, USA) and the cell lysate was transferred to a white opaque 96-well plate (50 μl/well). After mixing with the freshly diluted substrate (50 μl/well), bioluminescence was immediately measured on a SpectraMax M5 plate reader (Molecular Devices, Sunnyvale, CA, USA) using the luminescence mode. The measured bioluminescence data were expressed as mean ± SE (n = 3) and fitted to sigmoidal curves using the SigmaPlot10.0 software.
# [2] = target: T2, human RXFP4 (Homo sapiens, UniProt Q8TDU9); experiment: as above; settings: for fold lower binding potency towards RXFP4 compared with wild-type INSL5: lower than wild-type INSL5
# T2 construct: expressed in transfected cells; host or cells: HEK293T
# T2 sequence (Q8TDU9 whole entry): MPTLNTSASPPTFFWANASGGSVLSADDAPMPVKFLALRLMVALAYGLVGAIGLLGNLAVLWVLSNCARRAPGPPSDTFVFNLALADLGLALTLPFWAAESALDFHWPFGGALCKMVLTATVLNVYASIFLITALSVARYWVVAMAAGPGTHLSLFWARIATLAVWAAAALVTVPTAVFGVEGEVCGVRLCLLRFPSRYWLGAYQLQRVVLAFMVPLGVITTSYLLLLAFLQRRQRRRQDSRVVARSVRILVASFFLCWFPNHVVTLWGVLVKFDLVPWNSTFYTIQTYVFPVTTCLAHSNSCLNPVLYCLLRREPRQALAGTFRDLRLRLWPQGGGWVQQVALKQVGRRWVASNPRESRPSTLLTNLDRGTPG
# Experimental: as §1, §2
# [3] = target: T1, human RXFP3; experiment: Receptor activation assay, CRE-controlled NanoLuc reporter; format: cell-based; settings: for activation potency towards RXFP3, result in words: CRE-controlled NanoLuc reporter, HEK293T cells, human RXFP3
# Experimental: (§3) Figure 4 Receptor activation activities of the mature INSL5 and R3/I5 mutants towards RXFP3 and RXFP4. HEK293T cells transiently cotransfected by human RXFP3 or human RXFP4 and a CRE-controlled NanoLuc reporter were used for the activation assays. The measured data were expressed as mean ± SE (n = 3) and fitted to sigmoidal or linear curves using the software SigmaPlot 10.0.
# (§4) The receptor activation assays of the mature INSL5 and R3/I5 mutants were carried out using a cAMP-response element (CRE)-controlled NanoLuc reporter according to our previous procedure. Briefly, HEK293T cells were transiently cotransfected with the expression construct of human RXFP3 or human RXFP4 and the CRE-controlled NanoLuc reporter vector pNL1.2/CRE. Next day, the transfected cells were trypsinised, seeded into a 96-well plate, and continuously cultured for 24–36 h to ~90% confluence. To start activation assay, the medium was removed and the activation solution (serum-free DMEM medium plus 1% bovine serum albumin) containing 1.0 μM of forskolin and varied concentrations of peptide was added (100 μl/well). After being continuously cultured at 37 °C for 4 h, the activation solution was removed and the cells were lysed by lysis solution (100 μl/well, from Promega). The cell lysate was then transferred to a white opaque 96-well plate (50 μl/well), mixed with the freshly diluted substrate (50 μl/well), and bioluminescence was immediately measured on a SpectraMax M5 plate reader (Molecular Devices) using the luminescence mode. The measured bioluminescence data were expressed as mean ± SE (n = 3) and fitted to sigmoidal or linear curves using the SigmaPlot10.0 software.
# [4] = target: T2, human RXFP4; experiment: as above; format: cell-based
# Experimental: as §3, §4
# [5] = HEK293T cells transiently overexpressing human RXFP3, 0.5 nM NanoLuc-conjugated R3/I5 tracer, 21 °C, 2 h, mean ± SE, n = 3, SEM
# [6] = HEK293T cells transiently overexpressing human RXFP4, 0.5 nM NanoLuc-conjugated R3/I5 tracer, 21 °C, 2 h, mean ± SE, n = 3, SEM
# [7] = HEK293T cells cotransfected with human RXFP3 and CRE-controlled NanoLuc reporter, 1.0 μM forskolin, 37 °C, 4 h, mean ± SE, n = 3, N.D., not detectable, SEM
# [8] = HEK293T cells cotransfected with human RXFP4 and CRE-controlled NanoLuc reporter, 1.0 μM forskolin, 37 °C, 4 h, mean ± SE, n = 3, SEM
"pIC50 RXFP3 [1, 5]","pIC50 RXFP4 [2, 6]","pEC50 RXFP3 [3, 7]","pEC50 RXFP4 [4, 8]",Compound,other results
–,–,–,–,"CC[C@H](C)[C@@H]1NC(=O)[C@H](Cc2ccccc2)NC(=O)[C@H](CCC(=O)O)NC(=O)[C@H](CCCNC(=N)N)NC(=O)CNC(=O)[C@@H](NC(=O)[C@H](CC(C)C)NC(=O)[C@H](CCCNC(=N)N)NC(=O)[C@@H](NC(=O)CNC(=O)[C@H](Cc2ccc(O)cc2)NC(=O)[C@@H]2CCCN2C(=O)[C@H](C)NC(=O)[C@H](C)NC(=O)[C@@H](N)CCCNC(=N)N)C(C)C)CSSC[C@@H]2NC(=O)[C@@H](NC(=O)[C@H](CO)NC(=O)[C@H](CO)NC(=O)[C@H](CO)NC(=O)[C@H](CC(C)C)NC(=O)CNC(=O)[C@H](C)NC(=O)[C@H](CC(C)C)NC(=O)[C@@H](NC(=O)[C@@H](N)CC(=O)O)C(C)C)CSSC[C@H](NC(=O)CNC(=O)[C@H](Cc3c[nH]c4ccccc34)NC(=O)[C@H](CCCCN)NC2=O)C(=O)N[C@@H](CO)C(=O)N[C@@H](CCCCN)C(=O)N[C@@H](CO)C(=O)N[C@@H](CCC(=O)O)C(=O)N[C@@H]([C@@H](C)CC)C(=O)N[C@@H](CO)C(=O)N[C@@H](CO)C(=O)N[C@@H](CC(C)C)C(=O)N[C@H](C(=O)O)CSSC[C@@H](C(=O)NCC(=O)NCC(=O)N[C@@H](CO)C(=O)N[C@@H](CCCNC(=N)N)C(=O)N[C@@H](Cc2c[nH]c3ccccc23)C(=O)O)NC(=O)[C@H]([C@@H](C)O)NC(=O)[C@H](Cc2ccccc2)NC(=O)[C@H]([C@@H](C)CC)NC(=O)[C@H](C(C)C)NC(=O)[C@H](C)NC(=O)[C@H](CCCNC(=N)N)NC1=O [relaxin-3, reference compound]","IC50 ([1]; HEK293T cells transiently overexpressing human RXFP3, 0.5 nM NanoLuc-conjugated R3/I5 tracer, 21 °C, 2 h, mean ± SE, n = 3, SEM, read-out: pIC50 RXFP3 (converted)): 2.04 nM; IC50 ([2]; HEK293T cells transiently overexpressing human RXFP4, 0.5 nM NanoLuc-conjugated R3/I5 tracer, 21 °C, 2 h, mean ± SE, n = 3, SEM, read-out: pIC50 RXFP4 (converted)): 12.3 nM; EC50 ([3]; HEK293T cells cotransfected with human RXFP3 and CRE-controlled NanoLuc reporter, 1.0 μM forskolin, 37 °C, 4 h, mean ± SE, n = 3, N.D., not detectable, SEM, read-out: pEC50 RXFP3 (converted)): 0.0245 nM; EC50 ([4]; HEK293T cells cotransfected with human RXFP4 and CRE-controlled NanoLuc reporter, 1.0 μM forskolin, 37 °C, 4 h, mean ± SE, n = 3, SEM, read-out: pEC50 RXFP4 (converted)): 0.105 nM"
8.85 ± 0.02,8.24 ± 0.03,10.44 ± 0.03,10.32 ± 0.03,R3/I5: chimeric peptide containing the B-chain of relaxin-3 and the A-chain of INSL5 [reference compound],–
7.26 ± 0.05,7.75 ± 0.02,–,9.36 ± 0.06,"insulin-like peptide 5 (Insulin-like peptide INSL5 B … KESVRLCGLEYIRTVIYICASSRW; Insulin-like peptide INSL5 A … QDLQTLCCTDGCSMTDLSALC; UniProt Q9Y5Q6 23-46; Q9Y5Q6 115-135, looked up) [recombinant mature two-chain human INSL5, cognate agonist of RXFP4, reference compound]","fold lower binding affinity for RXFP3 than relaxin-3 ([1]; lower than relaxin-3): ~ 27 fold; activation potency towards RXFP3, result in words [3]: no detectable activation potency"
7.06 ± 0.03,7.57 ± 0.05,–,9.05 ± 0.04,"[T(B14)A]INSL5: recombinant mature two-chain INSL5 mutant (Insulin-like peptide INSL5 B … KESVRLCGLEYIRAVIYICASSRW; Insulin-like peptide INSL5 A … QDLQTLCCTDGCSMTDLSALC; ends and bridges not checked; cysteine pairing not given here; UniProt Q9Y5Q6 23-46; Q9Y5Q6 115-135, looked up, variant T14A)","activation potency towards RXFP3, result in words [3]: no detectable activation potency"
7.87 ± 0.04,7.85 ± 0.03,7.21 ± 0.04,9.87 ± 0.04,"[L(B9)R]INSL5: recombinant mature two-chain INSL5 mutant (Insulin-like peptide INSL5 B … KESVRLCGREYIRTVIYICASSRW; Insulin-like peptide INSL5 A … QDLQTLCCTDGCSMTDLSALC; ends and bridges not checked; cysteine pairing not given here; UniProt Q9Y5Q6 23-46; Q9Y5Q6 115-135, looked up, variant L9R)",fold higher binding potency towards RXFP3 than wild-type INSL5 ([1]; higher than wild-type INSL5): ~ 4 fold
6.77 ± 0.05,7.23 ± 0.03,6.83 ± 0.08,8.40 ± 0.09,"[Y(B17)F]INSL5: recombinant mature two-chain INSL5 mutant (Insulin-like peptide INSL5 B … KESVRLCGLEYIRTVIFICASSRW; Insulin-like peptide INSL5 A … QDLQTLCCTDGCSMTDLSALC; ends and bridges not checked; cysteine pairing not given here; UniProt Q9Y5Q6 23-46; Q9Y5Q6 115-135, looked up, variant Y17F)",fold lower binding potency towards RXFP3 compared with wild-type INSL5 ([1]; lower than wild-type INSL5): ~ 3 fold; fold lower binding potency towards RXFP4 compared with wild-type INSL5 [2]: ~ 3 fold; fold lower activation potency towards RXFP4 compared with INSL5 ([4]; lower than wild-type INSL5): ~ 9 fold
8.17 ± 0.04,7.33 ± 0.03,–,9.20 ± 0.03,"[L(B9)R,Y(B17)F]INSL5: recombinant mature two-chain INSL5 mutant (Insulin-like peptide INSL5 B … KESVRLCGREYIRTVIFICASSRW; Insulin-like peptide INSL5 A … QDLQTLCCTDGCSMTDLSALC; ends and bridges not checked; cysteine pairing not given here; UniProt Q9Y5Q6 23-46; Q9Y5Q6 115-135, looked up, variant L9R Y17F)","fold lower binding potency towards RXFP4 compared with wild-type INSL5 [2]: ~ 3 fold; pEC50 RXFP3 ([3]; HEK293T cells cotransfected with human RXFP3 and CRE-controlled NanoLuc reporter, 1.0 μM forskolin, 37 °C, 4 h, mean ± SE, n = 3, N.D., not detectable): <6; fold lower activation potency towards RXFP3 than its parent mutants ([3]; lower than parent mutants [L(B9)R]INSL5 and [Y(B17)F]INSL5): ~ 10 fold"
